Data on 1 substance can be found in paper PMC3189723.

Usually Kd stands for the concentration at which binding is half-saturated. A high value points to a looser complex.

The target in this experiment is ribosome nascent chain complex RNC_(1A9L) labeled with Cm on the nascent chain (1A9L 56 amb). In words: FRET or BRET.

With “BODIPY-Fl labeled Signal Recognition Particle (SRP; protein component Ffh) (from UniProt P0AGD7 1-453) (complex)”, the Kd is 0.73 nM.
